Source: patent publication US20240124553A1

Key:
[1] = molecular target: Sindbis virus strain TR339 (virions; also structural proteins on infected Vero cells) (Sindbis virus)
[2] = molecular target: Sindbis virus strain TR339 (virions; also structural proteins on infected Vero cells) (Sindbis virus); test: cell-based or functional assay
[3] = molecular target: Mayaro virus (MAYV) structural proteins on infected cells (Mayaro virus); test: flow cytometry, surface staining of MAYV-infected Vero cells with serial dilutions, % binding to infected cells

Du-D1-Mo-D2 MXRA8-Fc (chimeric duck D1 - mouse D2 MXRA8, duck stalk) (from UniProt Q9DBV4 23-65; Q9DBV4 195-293) (Fc fusion)
neutralisation of SINV-GFP infection; IC50 (read off the curve) [1]: 0.3 µg/mL | neutralization of SINV TR339 infection, EC50 against that of duck MXRA8-Fc [2]: 3 fold | EC50 (read off the curve) [3]: 0.04 µg/mL
